In patent US9156883B2, “Binding molecules for human factor VIII and factor VIII-like proteins” (DYAX CORP., priority 1999, dated 2015):
Positions of bridges follow the written chain, without caps; N, C: chain ends. No end group written: not given here. *: point of attachment. NHNH2 = NN*

Legend:
REFACTO® = biological target: T1, REFACTO® (Homo sapiens, UniProt P00451); experiment: Comparative batch binding and elution of REFACTO® with regenerated immobilized ligands; conditions: target REFACTO® 100 U/ml in modified Buffer 1
T1 construct: amino acids 1-743 and 1638 through 2332 of human factor VIII; purchased Genetics Institute, Inc. (Cambridge, Mass.)
T1 sequence (P00451 20-762): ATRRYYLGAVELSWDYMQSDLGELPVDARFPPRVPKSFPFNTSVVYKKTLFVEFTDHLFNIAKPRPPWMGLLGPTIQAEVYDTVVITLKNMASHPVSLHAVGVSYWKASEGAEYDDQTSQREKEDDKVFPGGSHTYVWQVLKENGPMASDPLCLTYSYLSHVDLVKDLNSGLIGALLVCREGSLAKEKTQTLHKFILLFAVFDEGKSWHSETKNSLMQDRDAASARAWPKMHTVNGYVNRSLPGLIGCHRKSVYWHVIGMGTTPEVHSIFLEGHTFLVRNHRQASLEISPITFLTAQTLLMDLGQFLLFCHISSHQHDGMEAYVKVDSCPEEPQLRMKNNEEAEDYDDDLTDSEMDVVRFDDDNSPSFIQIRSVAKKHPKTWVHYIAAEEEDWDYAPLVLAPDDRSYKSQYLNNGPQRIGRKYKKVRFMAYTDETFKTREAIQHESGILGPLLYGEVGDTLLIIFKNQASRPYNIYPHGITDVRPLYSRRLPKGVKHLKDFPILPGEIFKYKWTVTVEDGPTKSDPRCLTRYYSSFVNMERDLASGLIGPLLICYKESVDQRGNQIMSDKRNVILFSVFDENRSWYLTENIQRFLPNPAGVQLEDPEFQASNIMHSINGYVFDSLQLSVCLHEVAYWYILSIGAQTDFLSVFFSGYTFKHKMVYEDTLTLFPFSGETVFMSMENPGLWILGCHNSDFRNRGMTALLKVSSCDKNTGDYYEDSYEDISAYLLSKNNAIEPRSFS
T1 sequence (P00451 1657-2351): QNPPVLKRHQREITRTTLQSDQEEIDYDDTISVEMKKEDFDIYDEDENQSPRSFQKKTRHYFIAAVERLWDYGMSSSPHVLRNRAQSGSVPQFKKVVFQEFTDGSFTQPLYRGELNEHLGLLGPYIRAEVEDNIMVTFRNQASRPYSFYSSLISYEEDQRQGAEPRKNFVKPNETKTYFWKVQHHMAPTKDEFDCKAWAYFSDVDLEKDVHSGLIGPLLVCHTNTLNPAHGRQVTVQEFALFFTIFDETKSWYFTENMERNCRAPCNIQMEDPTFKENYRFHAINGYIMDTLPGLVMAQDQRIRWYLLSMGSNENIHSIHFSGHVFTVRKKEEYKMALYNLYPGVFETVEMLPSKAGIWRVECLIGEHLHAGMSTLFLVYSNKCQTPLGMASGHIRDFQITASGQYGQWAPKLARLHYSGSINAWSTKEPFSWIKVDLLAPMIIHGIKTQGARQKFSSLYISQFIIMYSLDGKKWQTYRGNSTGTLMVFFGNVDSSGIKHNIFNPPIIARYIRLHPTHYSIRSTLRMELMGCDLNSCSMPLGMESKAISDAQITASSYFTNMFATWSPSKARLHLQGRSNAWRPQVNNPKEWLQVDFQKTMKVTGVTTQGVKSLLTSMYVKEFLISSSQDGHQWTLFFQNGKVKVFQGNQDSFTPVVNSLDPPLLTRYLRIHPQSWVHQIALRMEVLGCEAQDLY
Text: A commercial ELISA kit (IMUBIND fVIII ELISA kit, Product #884, American, Inc., Greenwich, Conn.) developed to detect factor VIII was used according to the manufacturer's specifications in order to detect both the REFACTO® and the nhfVIII targets. The kit employs a sandwich ELISA assay in which the target is captured by an immobilized monoclonal antibody and the captured target is detected with a second monoclonal antibody-horseradish peroxidase (HRP) conjugate. Addition of the peroxidase substrate and its subsequent reaction with the HRP produces a blue color (detected at 630 nm) which changes to yellow (detected at 450 nm) on addition of the 0.5N sulfuric acid stop solution. Color response is calibrated with factor VIII standards provided by the manufacturer.
Following the pH 2 washes, the beads were washed once in PBS containing 0.05% azide and stored at 4° C.
A sample of nhfVIII was diluted to a final concentration of 100 U/ml by addition of 2.32 ml H2O, 180 μl 1M NH4OAc, pH 6.3 (to 72 mM), and 1 μl Tween 80 (to 0.04%). REFACTO® stock solution was diluted to 100 U/ml in a modified Buffer 1, in which the NaCl concentration was reduced from […] to 330 mM.
Immobilized peptides were tested for binding to nhFVIII in comparison with REFACTO®. […] Next, nhfVIII and REFACTO® solutions were mixed with regenerated affinity beads bearing the CS-454, CS-456, and CS-458 ligands in a comparative batch purification procedure.

[1] = biological target: T2, factor VIII-like polypeptide (REFACTO®) (Homo sapiens, UniProt P00451); experiment: Affinity chromatography capture and elution of REFACTO® on immobilized peptide columns; format: binding; conditions: bound material eluted in the presence of ethylene glycol
T2 construct: amino acids 1-743 and 1638 through 2332 of human factor VIII; purchased Genetics Institute, Inc. (Cambridge, Mass.)
T2 sequence (P00451 20-762): T1 sequence (P00451 20-762)
T2 sequence (P00451 1657-2351): T1 sequence (P00451 1657-2351)
Procedure: The candidate ligands were immobilized onto a formyl-substituted ethylene glycol-methacrylate chromatographic resin (Toyopearl Formyl 650-M, pore size of ˜1000 Å; TosoHaas, Montgomeryville, Pa.). The hydrazide-containing peptides were immobilized by facilitating hydrazone bond formation, the GI-1 and -2 peptides were immobilized via reductive amination using NaCNBH3. The amount of polypeptide immobilized on the solid support was determined by quantifying the amount of free polypeptide remaining in solution. The amount of ligand immobilized per ml of resin was in the range of 0.7-1.5 μmol for the hydrazine-immobilized peptides.
The nine peptides were evaluated by affinity chromatography for their ability to capture the REFACTO® described in Example I, under specific binding and release conditions.
The factor VIII-like polypeptide (REFACTO®) was diluted in SP Buffer to a concentration of 150 μg/ml. The affinity resins (˜350 μl) were each packed into glass columns, and approximately 150 μg of the factor VIII target was applied to the prepared affinity columns at a flow rate of 200 μl/minute (linear velocity of 170 cm/hour). […] Fractions were collected and the mass and activity of recovered factor VIII-like polypeptide was determined by reversed-phase HPLC and by enzymatic assay.
For the mass determination, a standard curve with REFACTO® (0-200 μg) was generated and the amount present in each fraction was calculated according to techniques well known in the art. Reversed-phase HPLC in the presence of 20 mM EDTA was used to disrupt the REFACTO® molecule into its component subunits, which were eluted with a gradient of acetonitrile/0.01% TFA. The activity assay was a Factor IX-, X-based assay. The results for each affinity resin are set forth below (Table 6).

Substance | % of Total Recovered in: Eluate (REFACTO®) [%] | % of Total Recovered in: Unbound (REFACTO®) [%] | % of Total Recovered in: Wash (REFACTO®) [%] | capture of the factor VIII target by the affinity resin (in words) [1]
AEGTGDFCWVFAFDHCHDPGPEGGGS-NHNH2 (disulfide 8-16 (inferred)) [CS-458] | 27 | 59 | 14 | –
AEGTGDFGCSWLFPCPFDPGPEGGGS-NHNH2 (disulfide 9-15 (inferred)) [CS-456] | – | – | – | captured virtually all of the factor VIII target applied
AEGTGDHLCGAWFRPCDADPGPEGGGS-NHNH2 (disulfide 9-16 (inferred)) [CS-454] | – | – | – | captured virtually all of the factor VIII target applied
